Measurements taken from article PMC7674511 (2020).

B1: BAG6 LIR1 peptide (residues 124-143) [modified: FITC label (position not stated), told for the anisotropy assay; FITC label (position not stated), told for the anisotropy assay] [not stated] / LC3B-I [not stated] (parent complex)
chain 1: VHDRNANSYVMVGTFNLPSD
chain 2: not shown
B2: FLAG-BAG6(1-266aa) [not stated] / GFP-LC3B [not stated] (parent complex)
chain 1: MEPNDSTSTAVEEPDSLEVLVKTLDSQTRTFIVGAQMNVKEFKEHIAASVSIPSEKQRLIYQGRVLQDDKKLQEYNVGGKVIHLVERAPPQTHLPSGASSGTGSASATHGGGSPPGTRGPGASVHDRNANSYVMVGTFNLPSDGSAVDVHINMEQAPIQSEPRVRLVMAQHMIRDIQTLLSRMECRGGPQPQHSQPPPQPPAVTPEPVALSSQTSEPVESEAPPREPMEAEEVEERAPAQNPELTPGPAPAGPTPAPETNAPNHPS
chain 2: not shown

Variants of: B1
Assay: fluorescence anisotropy; FITC-labeled peptide 1 μM; read at the highest LC3B-I concentration plotted (about 48 μM); read off a plot

| response | Variant |
| --- | --- |
| ~0.001 | chain 1 Y9A, chain 1 V12A |

Variants of: B2
Assay: co-immunoprecipitation (FLAG pulldown with anti-FLAG beads, immunoblot); HEK293FT cells transfected with GFP-LC3B and FLAG-BAG6(1-266aa) constructs

| ratio to parent | Variant |
| --- | --- |
| 0.23 | chain 1 Y132A, chain 1 V133A, chain 1 M134A, chain 1 V135A |
| 0.79 | chain 1 Y132A, chain 1 V135A |
